Laboratory results from US20250049970A1, “DLL3 TARGETING PEPTIDES AND CONSTRUCTS THEREOF” (MARIANA ONCOLOGY INC., priority 2023, published 2025).
Several values for one entry are separate records, joined by “and”; a condition that tells them apart may be missing. Identical values can stand only once. *1 amine or outer side, *2 acyl side, *3 side chain or, on linkers, in order; H or OH if unused. Bridges are numbered along the chain shown (N, C = ends). Side-chain parts run from the residue outwards. [ ]: non-standard residue; d: D form. The star is where a group is joined. PipA(acetate-DOTA) = (3-(4-piperidinyl)-Ala)-(1,4,7,10-tetraazacyclododecane-1,4,7-triyl)triacetic acid, O=C(O)CN1CCN(CC(=O)O)CCN(CC(=O)N2CCC(C[C@H](N[*:1])C(=O)[*:2])CC2)CCN(CC(=O)O)CC1; PipA(Peg) = 3-(4-piperidinyl)-Ala-(3-hydroxypropanoic acid), O=C(CCO[*:3])N1CCC(C[C@H](N[*:1])C(=O)[*:2])CC1; Ala(1-CH2CO2H-4-piperidyl) = N[C@@H](CC1CCN(CC(=O)O)CC1)C(=O)O; Ala(piperidin-4-yl) = O=C([C@H](CC1CCN([*:3])CC1)N[*:1])[*:2]; DOTA = O=C(O)CN1CCN(CC(=O)O)CCN(CC(=O)*)CCN(CC(=O)O)CC1; PEG8 = NCCOCCOCCOCCOCCOCCOCCOCCOCCC(=O)O; 2Nal = N[C@@H](Cc1ccc2ccccc2c1)C(=O)O; NMetBuAla = CN[C@@H](CC(C)(C)C)C(=O)O; Gly(4-THP) = N[C@H](C(=O)O)C1CCOCC1; Ile(3-Me) = CCC(C)(C)[C@H](N)C(=O)O; aIle = CC[C@@H](C)[C@H](N)C(=O)O; tBuAla = CC(C)(C)C[C@H](N)C(=O)O; Cha = N[C@@H](CC1CCCCC1)C(=O)O; Chg = N[C@H](C(=O)O)C1CCCCC1; NMeNle = CCCC[C@H](NC)C(=O)O; Tle = CC(C)(C)[C@H](N)C(=O)O; αMeP = C[C@@]1(C(=O)O)CCCN1; plPh = not defined here; CH2 = C([*:1])[*:2]

T1: DLL3 on SHP-77 cells (human, UniProt Q9NYJ7 27-618)
T1 construct: SHP-77 cells are human-derived, non-engineered SCLC cells
T1 sequence: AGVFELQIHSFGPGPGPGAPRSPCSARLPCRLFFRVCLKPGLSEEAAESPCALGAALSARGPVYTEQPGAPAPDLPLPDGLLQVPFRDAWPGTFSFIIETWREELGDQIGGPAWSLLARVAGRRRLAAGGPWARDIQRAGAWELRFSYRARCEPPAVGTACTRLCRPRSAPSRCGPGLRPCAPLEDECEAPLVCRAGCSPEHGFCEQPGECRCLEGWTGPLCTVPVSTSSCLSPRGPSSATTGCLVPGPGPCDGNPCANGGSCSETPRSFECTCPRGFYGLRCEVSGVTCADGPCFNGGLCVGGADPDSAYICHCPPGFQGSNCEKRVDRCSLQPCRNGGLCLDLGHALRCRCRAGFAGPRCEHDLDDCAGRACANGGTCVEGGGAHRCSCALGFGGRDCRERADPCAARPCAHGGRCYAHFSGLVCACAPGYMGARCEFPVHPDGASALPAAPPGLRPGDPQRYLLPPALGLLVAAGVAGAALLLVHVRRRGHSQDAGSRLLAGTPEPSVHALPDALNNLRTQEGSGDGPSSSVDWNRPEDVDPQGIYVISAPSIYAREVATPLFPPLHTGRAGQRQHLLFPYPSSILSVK

T2: DLL3 on CT26.DLL3 cells (Homo sapiens (Human), UniProt Q9NYJ7 27-618)
T2 construct: CT26.DLL3 are engineered cells to express DLL3
T2 sequence: T1 sequence

B1: Cpd No. 437 (peptide)
peptide: Ac-WT[tBuAla]C[Ala(piperidin-4-yl)]N[2Nal]K(DOTA)DCW[αMeP]-NH2
modifications: bridge 4-10; not fully specified (bridges)
B2: Cpd No. 236 (peptide)
peptide: Ac-WT[NMetBuAla]C[Ala(piperidin-4-yl)]N[2Nal]K(DOTA)DCW[αMeP]-NH2
modifications: bridge 4-10; not fully specified (bridges)
B3: Cpd No. 314 (peptide)
peptide: Ac-WT[tBuAla]C[Ala(piperidin-4-yl)]N[2Nal]K(DOTA)DCWP-NH2
modifications: disulfide 4-10
SMILES: CC(=O)N[C@@H](Cc1c[nH]c2ccccc12)C(=O)N[C@H](C(=O)N[C@@H](CC(C)(C)C)C(=O)N[C@H]1CSSC[C@@H](C(=O)N[C@@H](Cc2c[nH]c3ccccc23)C(=O)N2CCC[C@H]2C(N)=O)NC(=O)[C@H](CC(=O)O)NC(=O)[C@H](CCCCNC(=O)CN2CCN(CC(=O)O)CCN(CC(=O)O)CCN(CC(=O)O)CC2)NC(=O)[C@H](Cc2ccc3ccccc3c2)NC(=O)[C@H](CC(N)=O)NC(=O)[C@H](CC2CCNCC2)NC1=O)[C@@H](C)O
B4: Cpd No. 249 (peptide)
peptide: Ac-WTICK(DOTA)N[2Nal]HDCWP-NH2
modifications: disulfide 4-10
SMILES: CC[C@H](C)[C@H](NC(=O)[C@@H](NC(=O)[C@H](Cc1c[nH]c2ccccc12)NC(C)=O)[C@@H](C)O)C(=O)N[C@H]1CSSC[C@@H](C(=O)N[C@@H](Cc2c[nH]c3ccccc23)C(=O)N2CCC[C@H]2C(N)=O)NC(=O)[C@H](CC(=O)O)NC(=O)[C@H](Cc2c[nH]cn2)NC(=O)[C@H](Cc2ccc3ccccc3c2)NC(=O)[C@H](CC(N)=O)NC(=O)[C@H](CCCCNC(=O)CN2CCN(CC(=O)O)CCN(CC(=O)O)CCN(CC(=O)O)CC2)NC1=O
notes: also called compound 249
B5: Cpd No. 322 (peptide)
peptide: Ac-WT[aIle]CNN[2Nal]K(DOTA)DCWP-NH2
modifications: disulfide 4-10
SMILES: CC[C@@H](C)[C@H](NC(=O)[C@@H](NC(=O)[C@H](Cc1c[nH]c2ccccc12)NC(C)=O)[C@@H](C)O)C(=O)N[C@H]1CSSC[C@@H](C(=O)N[C@@H](Cc2c[nH]c3ccccc23)C(=O)N2CCC[C@H]2C(N)=O)NC(=O)[C@H](CC(=O)O)NC(=O)[C@H](CCCCNC(=O)CN2CCN(CC(=O)O)CCN(CC(=O)O)CCN(CC(=O)O)CC2)NC(=O)[C@H](Cc2ccc3ccccc3c2)NC(=O)[C@H](CC(N)=O)NC(=O)[C@H](CC(N)=O)NC1=O
B6: Cpd No. 316 (peptide)
peptide: Ac-WT[tBuAla]CNN[2Nal]K(DOTA)DCWP-NH2
modifications: disulfide 4-10
B7: Cpd No. 320 (peptide)
peptide: Ac-WT[NMeNle]CNN[2Nal]K(DOTA)DCWP-NH2
modifications: disulfide 4-10
B8: Cpd No. 318 (peptide)
peptide: Ac-WT[Chg]CNN[2Nal]K(DOTA)DCWP-NH2
modifications: disulfide 4-10
B9: Cpd No. 317 (peptide)
peptide: Ac-WT[Gly(4-THP)]CNN[2Nal]K(DOTA)DCWP-NH2
modifications: disulfide 4-10
SMILES: CC(=O)N[C@@H](Cc1c[nH]c2ccccc12)C(=O)N[C@H](C(=O)N[C@H](C(=O)N[C@H]1CSSC[C@@H](C(=O)N[C@@H](Cc2c[nH]c3ccccc23)C(=O)N2CCC[C@H]2C(N)=O)NC(=O)[C@H](CC(=O)O)NC(=O)[C@H](CCCCNC(=O)CN2CCN(CC(=O)O)CCN(CC(=O)O)CCN(CC(=O)O)CC2)NC(=O)[C@H](Cc2ccc3ccccc3c2)NC(=O)[C@H](CC(N)=O)NC(=O)[C@H](CC(N)=O)NC1=O)C1CCOCC1)[C@@H](C)O
B10: Cpd No. 321 (peptide)
peptide: Ac-WT[Ile(3-Me)]CNN[2Nal]K(DOTA)DCWP-NH2
modifications: disulfide 4-10
B11: Cpd No. 323 (peptide)
peptide: Ac-WT[Cha]CNN[2Nal]K(DOTA)DCWP-NH2
modifications: disulfide 4-10
SMILES: CC(=O)N[C@@H](Cc1c[nH]c2ccccc12)C(=O)N[C@H](C(=O)N[C@@H](CC1CCCCC1)C(=O)N[C@H]1CSSC[C@@H](C(=O)N[C@@H](Cc2c[nH]c3ccccc23)C(=O)N2CCC[C@H]2C(N)=O)NC(=O)[C@H](CC(=O)O)NC(=O)[C@H](CCCCNC(=O)CN2CCN(CC(=O)O)CCN(CC(=O)O)CCN(CC(=O)O)CC2)NC(=O)[C@H](Cc2ccc3ccccc3c2)NC(=O)[C@H](CC(N)=O)NC(=O)[C@H](CC(N)=O)NC1=O)[C@@H](C)O
B12: Cpd No. 153 (peptide)
peptide: Ac-WT[NMetBuAla]C[Ala(piperidin-4-yl)]N[2Nal]K(DOTA)DCWP-NH2
modifications: bridge 4-10; not fully specified (bridges)
B13: Cpd No. 442 (peptide)
peptide: Ac-WT[NMetBuAla]C[Ala(piperidin-4-yl)]N[2Nal]K(DOTA)DCWP-OH
modifications: linker 4-10 via CH2
B14: Cpd No. 448 (peptide)
peptide: Ac-WT[NMetBuAla]C[PipA(Peg)]N[2Nal]K(DOTA)DCWP-NH2
modifications: linker 4-10 via CH2
B15: Cpd No. 447 (peptide)
peptide: Ac-WT[NMetBuAla]C[Ala(1-CH2CO2H-4-piperidyl)]N[2Nal]K(DOTA)DCWP-NH2
modifications: linker 4-10 via CH2
B16: Cpd No. 445 (peptide)
peptide: Ac-WT[NMetBuAla]C[Ala(piperidin-4-yl)]N[2Nal]K(DOTA)DCWP[dK]-NH2
modifications: bridge 4-10; not fully specified (residue 13)
B17: Cpd No. 449 (peptide)
peptide: Ac-WT[NMetBuAla]C[PipA(acetate-DOTA)]N[2Nal]K(DOTA)DCWP-NH2
modifications: linker 4-10 via CH2
B18: Cpd No. 301 (peptide)
peptide: Ac-WT[Tle]C[Ala(piperidin-4-yl)]N[2Nal]K(DOTA)DCWP-NH2
modifications: disulfide 4-10
B19: Cpd No. 417 (peptide)
peptide: Ac-WT[Chg]C[Ala(piperidin-4-yl)]N[2Nal]K(DOTA)DCWP[dK]([PEG8-plPh])-NH2
modifications: bridge 4-10; not fully specified (bridges); reading uncertain; also: bridge 4-10: thioacetal per mods, disulfide
B20: Cpd No. 300 (peptide)
peptide: Ac-WT[NMeNle]C[Ala(piperidin-4-yl)]N[2Nal]K(DOTA)DCWP-NH2
modifications: disulfide 4-10

target: Recombinant human DLL3 aa27-215 protein (human) (UniProt Q9NYJ7); experiment: ELISA: anti-DOTA antibody coated on the plate captures the DOTA-containing peptide (titrated 100 nM to 1.69 pM); 2 ug/mL DLL3 aa27-215 (His-tagged) added; detected with anti-His-HRP, OD450; EC50 fitted in GraphPad

EC50	Binder
2.86 nM	B1
0.341 nM	B2

target: T1, DLL3 on SHP-77 cells; experiment: [177Lu]Lu-labelled peptide on SHP-77 cells, 1 h 37 C, gamma counter; B = 25<%<=50

% Binding	Binder
> 25% and < 50%	B3

target: T2, DLL3 on CT26.DLL3 cells; experiment: [177Lu]Lu-labelled peptide on CT26.DLL3 cells, 1 h 37 C, gamma counter; A = %<=25
Experimental: (§1) Adherent cell studies: The cells were cultured in appropriate culture media (20 mL) in tissue culture treated T150 flasks at 37° C. and 5% C02. Adherent cells were detached (60-70% confluent) using 5 mL Versene at 37° C. for 3 minutes. After confirming the viability using countess and count of detached cells using Trypan blue, the cells were centrifuged at 4° C. for 5 minutes (1,000 rpm). The cell pellet obtained was washed once with PBS and resuspended in 1% PBSA to obtain the desired cell concentration (5-25 million cells/mL).
(§2) Total uptake: Cells were incubated with 300 μL (0.8 μCi) of the incubation buffer (containing radiolabeled peptide [¹⁷⁷Lu]Lu-test peptide) for 1 hour at 37° C. (Table 10). Post incubation, the cells were pelleted and washed 2 times using cold PBS+1% BSA. The supernatant and washes were combined and counted together as “unbound fraction” in a gamma counter. The cells were then resuspended in 300 μL of 1% PBS+1% BSA and counted in the gamma counter as “bound fraction”.

% Binding	Binder
≤ 25%	B4
≤ 25%	B5
≤ 25%	B6
≤ 25%	B7
≤ 25%	B8
≤ 25%	B9
≤ 25%	B10
≤ 25%	B11

target: T1, DLL3 on SHP-77 cells; experiment: [177Lu]Lu-labelled peptide on SHP-77 cells, 1 h 37 C, gamma counter; C = %>50

% Binding	Binder
> 50%	B12
> 50%	B13
> 50%	B14
> 50%	B15
> 50%	B16
> 50%	B2
> 50%	B17

target: T1, DLL3 on SHP-77 cells; experiment: [177Lu]Lu-labelled peptide on SHP-77 cells, 1 h 37 C, gamma counter; A = %<=25
Experimental: as §1, §2

% Binding	Binder
≤ 25%	B4
≤ 25%	B5
≤ 25%	B7
≤ 25%	B9
≤ 25%	B11

target: DLL3 on CT26.DLL3 cells (Homo sapiens (Human)) (UniProt Q9NYJ7); experiment: [177Lu]Lu-labelled peptide on CT26.DLL3 cells, 1 h 37 C, gamma counter; B = 25<%<=50

% Binding	Binder
> 25% and < 50%	B3
> 25% and < 50%	B18
> 25% and < 50%	B19
> 25% and < 50%	B20
